We go through one protein from publication PMC7303358, “The Lotus japonicus Ubiquitin Ligase SIE3 Interacts With the Transcription Factor SIP1 and Forms a Homodimer” (Frontiers in Plant Science, 2020).

The data set concerns the molecule itself. As to the kind of experiment: SDS-PAGE without DTT in the loading buffer and immunoblot (band of dimer size); SIE3::GFP leaf extract in native buffer, incubated with 10 μM ATP at 4°C with 0 or 100 mM DTT; stopped with SDS loading buffer without DTT; anti-GFP blot. In general terms: A western blot detects proteins with antibodies after separation by electrophoresis.

B1: SIE3::GFP (natural protein, L. japonicus, UniProt K0BV36 1-386, looked up)
chain: MELSTIKDAFDRVTKKQKSSSSKTQEVIDQIRQEIENVLDTMQSVNNTDHVLDHKTVLNELKASLLQTAPLSQMEGTQKELNVALSKYGKLLEKNFNTDISKAYRNIDIDVHTLNQIIANHFYRQGLFEIGDHFLSVVGEPESAAVMKSPFLEMYQILEAMKNQDLEPALKWATSNSDKLAQSGSDIVLKLHSMQFVKILQNGSRDEALHYARTYLSPFASSHIADIQKLMGSLLWTGKLDSSPYHALLSPSNWDRLAEELKRQFCNLLGQSYNSPLSVTISAGVQALPPLLKFMNVMVGKKQEWQTMNQLPVPVELDSELQFHSIFVCPVSKEQATEDNPPMLMSCGHVLCKQSISKMSKNGSKLFKCPYCPFDVDAALCKQLYF
notes: SIE3 of Lotus japonicus fused to GFP; the cloning of this construct is not described; Detected with anti-GFP antibody; monomer about 68.5 kDa, upper band about 137 kDa; source: N. benthamiana leaves, total proteins extracted in native buffer
For orientation: stoichiometry N means the number of molecules, sites or subunits per partner or assembly. As for B1, the “stoichiometry N” value worked out at 2.
